According to US20140072580, “NOVEL TARGETS FOR TREATMENT OF HYPERCHOLESTEROLEMIA” (THE REGENTS OF THE UNIVERSITY OF CALIFORNIA, published 2014):

Key:
[1] = biological target: T1, LXR/RXR heterodimer (LXRalpha (NR1H3)/RXR; isoforms in EMSA not stated) (UniProt Q9Z0Y9;P28700 Q9Z0Y9:1-445,P28700:1-467); assay: EMSA; binding competed by excess unlabeled Mylip LXRE; protein source not stated; conditions: label: radiolabeled
T1 sequence 1: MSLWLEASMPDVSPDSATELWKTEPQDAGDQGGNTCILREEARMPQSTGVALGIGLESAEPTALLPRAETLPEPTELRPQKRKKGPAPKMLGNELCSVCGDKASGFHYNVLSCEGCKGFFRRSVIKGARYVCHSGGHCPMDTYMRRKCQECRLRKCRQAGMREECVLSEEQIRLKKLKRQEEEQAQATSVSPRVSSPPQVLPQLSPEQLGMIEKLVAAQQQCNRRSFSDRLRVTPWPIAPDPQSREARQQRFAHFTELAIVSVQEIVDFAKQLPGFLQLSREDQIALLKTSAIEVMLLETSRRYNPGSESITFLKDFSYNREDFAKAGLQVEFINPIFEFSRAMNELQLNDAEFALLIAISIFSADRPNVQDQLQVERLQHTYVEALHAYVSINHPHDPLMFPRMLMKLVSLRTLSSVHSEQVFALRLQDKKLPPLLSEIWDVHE
T1 sequence 2: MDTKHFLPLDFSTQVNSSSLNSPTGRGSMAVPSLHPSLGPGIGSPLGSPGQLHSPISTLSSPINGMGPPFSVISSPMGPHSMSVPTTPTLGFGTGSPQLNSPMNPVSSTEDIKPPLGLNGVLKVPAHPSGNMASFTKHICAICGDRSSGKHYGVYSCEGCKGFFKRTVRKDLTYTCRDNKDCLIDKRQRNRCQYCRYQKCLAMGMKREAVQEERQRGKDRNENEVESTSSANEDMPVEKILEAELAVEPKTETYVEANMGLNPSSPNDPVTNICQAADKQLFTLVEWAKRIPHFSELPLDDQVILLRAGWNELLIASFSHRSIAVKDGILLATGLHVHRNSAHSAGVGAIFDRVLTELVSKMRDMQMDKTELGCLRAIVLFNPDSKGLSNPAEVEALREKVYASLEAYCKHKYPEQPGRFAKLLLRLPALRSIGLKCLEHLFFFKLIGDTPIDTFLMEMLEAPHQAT
Protocol: (§1) It also could not be secondary to induction of SREBP-1c, because oxysterols that block SREBP processing still induced Mylip expression (FIG. 6B). LXRs activate target genes by binding to consensus elements (LXREs) in their promoters. We identified an LXRE approximately 2.5 kb upstream of the mouse Mylip translation start site (FIG. 6C) and generated a reporter construct encompassing this region.
(§2) A 10 Kb promotor region upstream of the mMylip transcription initiation site was analyzed for the presence of LXR binding elements. A consensus DR4 site was identified 2454 upstream of the transcription initiation site. Olignoucleotides encompassing this element were designed, annealed and tested for binding to LXR/RXR heterodimers in a standard EMSA assay. A 2.5 kB promotor fragment upstream of the transcription initiation site containing the identified LXRE was amplified by PCR from BAC clone RP23-17N24 using mMylip-prom-FWD […] (SEQ ID NO:20) or mMylip-prom-ΔFWD […] (SEQ ID NO:21) with the common antisense primer mMylip-prom-REV […] (SEQ ID NO:22). Amplified fragments were cloned as SacI/XhoI fragments into pGL3 basic (Promega). Promotor analysis was done as previously described (Joseph et al. (2002) J Biol Chem 277: 11019).

[2] = biological target: T1, LXR/RXR heterodimer (LXRalpha …); assay: EMSA; no binding to mutant LXRE; conditions: label: radiolabeled
Protocol: as §1, §2

B1: Mylip WT DR4 LXRE (dsDNA)
DNA 1: TCCCTACTTAACCTACAATGACCTCAAGTTTC
DNA 2: GAAACTTGAGGTCATTGTAGGTTAAGTAGGGA
binding result [1]: binds

B2: Mylip MUT DR4 LXRE (dsDNA)
DNA 1: TCCCTACTTATTCTACAATGTTCTCAAGTTTC
DNA 2: GAAACTTGAGAACATTGTAGAATAAGTAGGGA
binding result [2]: no binding
